Several values for one entry are separate records, joined by “and”; a condition that tells them apart may be missing. Equal entries are not always repeated.
B1: CMG2 on CHO CMG2-C4 cells (receptor)
chain: not shown
B2: TEM8 on CHO TEM8-T4 cells (receptor)
chain: not shown

Biological target: PA-U7 (Bacillus anthracis, UniProt P13423 30-764)

| Binder | Kd |
| --- | --- |
| B1 | 8 nM and 12 nM |
| B2 | 25 nM and 35 nM |
